Measurements as given in the RNAGym collection of RNA variant scans (doi:10.1093/molbev/msab373).

B1: Azoarcus group I ribozyme (parent)
chain: GUGCCUUGCGCCGGGAAACCACGCAAGGGAUGGUGUCAAAUUCGGCGAAACCUAAGCGCCCGCCCGGGCGUAUGGCAACGCCGAGCCAAGCUUCGGCGCCUGCGCCGAUGAAGGUGUAGAGACUAGACGGCACCCACCUAAGGCAAACGCUAUGGUGAAGGCAUAGUCCAGGGAGUGGCGAAAGUCACACAAACCGG

Variants of: B1
Test: reverse-splicing fitness (ratio to wild type); higher = more active; in vitro selection; Mg2+ level not given
Procedure, shortened: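 An in vitro group I ribozyme library with randomized positions was T7-transcribed and gel-purified. In triplicate, 10 pmol RNA in EPPS pH 7.5 was reacted with 50 pmoles of a 30-nt RNA substrate for 1 h at 37 °C across several added MgCl2 levels (1–48 mM), then stopped with EDTA. Products were reverse transcribed from a substrate-complementary primer, PCR-amplified and sequenced (HiSeq 4000). Fitness is a variant's read proportion after selection over that before, normalised to wild type.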

Row | Variant | reverse-splicing fitness
1 | C82U A111G A120G A145G C150A | 0.00878
2 | C82U A111G A120G A145G C150G | 0.00721
3 | C82U A111G A120G A145G C150U | 0.0132
4 | C82U A111G A120G A145G C150U C169U U176G | 0.00525
5 | C82U A111G A120G A145G C150U C169U U176A | 0.0187
6 | C82U A111G A120G A145G C150U C169U U176C | 0.0162
7 | C82U A111G A120G A145C C150A U176C | 0.00818
8 | C82U A111G A120G A145C C150A U176A | 0.00929
9 | C82U A111G A120G A145C C150A U176G | 0.00354
10 | C82U A111G A120C A145G C150A C169G U176G | 0.00547
11 | C82U A111G A120C A145G C150A C169G U176A | 0.0237
12 | C82U A111G A120C A145G C150A C169G U176C | 0.0213
13 | C82U A111G A120C A145U C169G U176C | 0.00823
14 | C82U A111G A120C A145U C169G U176A | 0.00935
15 | C82U A111G A120C A145U C169G U176G | 0.00375
16 | C82U A111G A120C A145C C169U U176G | 0.0032
17 | C82U A111G A120C A145C C169U U176A | 0.0142
18 | C82U A111G A120C A145C C169U U176C | 0.0107
19 | C82U A111G A120G A145C C150U C169G U176A | 0.0203
20 | C82U A111G A120G A145C C150U C169G U176G | 0.0045
21 | C82U A111G A120G A145C C150U C169G U176C | 0.0111

Row | Variant | reverse-splicing fitness
22 | C82U A111G A120C A145G C150A U176C | 0.0246
23 | C82U A111G A120C A145G C150A U176G | 0.00727
24 | C82U A111G A120C A145G C150A U176A | 0.0119
25 | C82U A111G A120G A145G C150A C169A U176G | 0.00545
26 | C82U A111G A120G A145G C150A C169A U176C | 0.0196
27 | C82U A111G A120G A145G C150A C169A U176A | 0.0174
28 | C82U A111G A120C A145G C150G U176G | 0.0033
29 | C82U A111G A120C A145G C150G U176C | 0.00793
30 | C82U A111G A120C A145G C150G U176A | 0.00545
31 | C82U A111G A120C A145C C150U C169U U176C | 0.00942
32 | C82U A111G A120C A145C C150U C169U U176A | 0.0144
33 | C82U A111G A120C A145C C150U C169U U176G | 0.00402
34 | C82U A111G A120C A145U C169A | 0.00556
35 | C82U A111G A120C A145U C169G | 0.00646
36 | C82U A111G A120C A145U C169U | 0.0104
37 | C82U A111G A120G A145C C150G C169A U176C | 0.00579
38 | C82U A111G A120G A145C C150G C169A U176G | 0.00439
39 | C82U A111G A120G A145C C150G C169A U176A | 0.00781
40 | C82U A111G A120G A145G C150U C169G U176A | 0.014
41 | C82U A111G A120G A145G C150U C169G U176G | 0.00444
42 | C82U A111G A120G A145G C150U C169G U176C | 0.0168

Row | Variant | reverse-splicing fitness
43 | C82U A111G A120G A145C C150G C169G U176G | 0.00399
44 | C82U A111G A120G A145C C150G C169G U176A | 0.00868
45 | C82U A111G A120G A145C C150G C169G U176C | 0.00692
46 | C82U A111G A120C C169U U176C | 0.014
47 | C82U A111G A120C C169U U176G | 0.00349
48 | C82U A111G A120C C169U U176A | 0.0149
49 | C82U A111G A120G A145G C150A C169G U176G | 0.00482
50 | C82U A111G A120G A145G C150A C169G U176A | 0.0174
51 | C82U A111G A120G A145G C150A C169G U176C | 0.0228
52 | C82U A111G A120G A145G C150A C169U U176A | 0.0215
53 | C82U A111G A120G A145G C150A C169U U176C | 0.0156
54 | C82U A111G A120G A145G C150A C169U U176G | 0.00573
55 | C82U A111G A120G A145G C150U C169G | 0.0111
56 | C82U A111G A120G A145G C150U C169A | 0.0108
57 | C82U A111G A120G A145G C150U C169U | 0.0114
58 | C82U A111G A120C A145U C150U C169G U176A | 0.0133
59 | C82U A111G A120C A145U C150U C169G U176G | 0.00414
60 | C82U A111G A120C A145U C150U C169G U176C | 0.0121
61 | C82U A111G A120G A145G C150U U176G | 0.00622
62 | C82U A111G A120G A145G C150U U176A | 0.00859
63 | C82U A111G A120G A145G C150U U176C | 0.0166

Row | Variant | reverse-splicing fitness
64 | C82U A111G A120C C150G C169U U176G | 0.00489
65 | C82U A111G A120C C150G C169U U176A | 0.00617
66 | C82U A111G A120C C150G C169U U176C | 0.0138
67 | C82U A111G A120C A145U C150U U176G | 0.00565
68 | C82U A111G A120C A145U C150U U176A | 0.0147
69 | C82U A111G A120C A145U C150U U176C | 0.0223
70 | C82U A111G A120G A145G C150G C169G | 0.00721
71 | C82U A111G A120G A145G C150G C169U | 0.00855
72 | C82U A111G A120G A145G C150G C169A | 0.00895
73 | C82U A111G A120C A145U C169A U176G | 0.00329
74 | C82U A111G A120C A145U C169A U176C | 0.00627
75 | C82U A111G A120C A145U C169A U176A | 0.00844
76 | C82U A111G A120C A145U C150A U176C | 0.0125
77 | C82U A111G A120C A145U C150A U176G | 0.0049
78 | C82U A111G A120C A145U C150A U176A | 0.0116
79 | C82U A111G A120C A145U C150U C169U | 0.00989
80 | C82U A111G A120C A145U C150U C169A | 0.00793
81 | C82U A111G A120C A145U C150U C169G | 0.008
82 | C82U A111G A120C A145U U176G | 0.00658
83 | C82U A111G A120C A145U U176A | 0.017
